According to patent EP4703383A1 (Shenzhen Genuine Biomedical Technology Co., Ltd, dated 2026):

T1: extracellular segment of the PRLR protein of cynomolgus monkey with avi-(his)6 tag (cynoPRLR-ECD-avi-his) (cynomolgus monkey)
T1 construct: The assays say only 'monomeric monkey PRLR extracellular domain / ECD'; also called cynomolgus monkey PRLR extracellular domain; Monkey PRLR
T1 chain: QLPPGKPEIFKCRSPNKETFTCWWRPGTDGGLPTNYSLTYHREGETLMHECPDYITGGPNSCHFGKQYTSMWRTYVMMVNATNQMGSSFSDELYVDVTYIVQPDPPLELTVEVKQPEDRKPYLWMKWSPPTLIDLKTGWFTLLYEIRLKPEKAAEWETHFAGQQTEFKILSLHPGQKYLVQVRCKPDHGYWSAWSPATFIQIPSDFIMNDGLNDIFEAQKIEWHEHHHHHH

T2: human PRLR expressed on cells (human, UniProt P16471 25-622)
T2 sequence: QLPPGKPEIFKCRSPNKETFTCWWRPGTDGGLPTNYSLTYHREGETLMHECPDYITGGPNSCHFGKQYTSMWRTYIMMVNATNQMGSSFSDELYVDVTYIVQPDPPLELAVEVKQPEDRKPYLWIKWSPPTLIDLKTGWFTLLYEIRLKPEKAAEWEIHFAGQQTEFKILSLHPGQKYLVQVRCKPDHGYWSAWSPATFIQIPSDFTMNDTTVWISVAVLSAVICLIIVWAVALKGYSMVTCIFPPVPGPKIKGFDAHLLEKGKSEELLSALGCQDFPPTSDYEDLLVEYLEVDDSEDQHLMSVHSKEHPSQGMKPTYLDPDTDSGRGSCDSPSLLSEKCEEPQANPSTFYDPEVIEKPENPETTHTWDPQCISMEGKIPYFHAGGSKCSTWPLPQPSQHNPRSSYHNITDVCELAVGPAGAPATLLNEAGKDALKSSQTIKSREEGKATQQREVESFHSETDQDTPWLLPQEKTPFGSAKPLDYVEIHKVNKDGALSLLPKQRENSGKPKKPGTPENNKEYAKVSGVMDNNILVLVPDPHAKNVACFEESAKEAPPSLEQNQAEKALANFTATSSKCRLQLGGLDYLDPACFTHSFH

T3: extracellular segment of human PRLR protein with avi-(his)6 tag (hPRLR-ECD-avi-his) (human, UniProt P16471 25-234)
T3 construct: The assays say only 'monomeric human PRLR extracellular domain / ECD'; also called human PRLR extracellular domain; monomeric PRLR ECD
T3 sequence: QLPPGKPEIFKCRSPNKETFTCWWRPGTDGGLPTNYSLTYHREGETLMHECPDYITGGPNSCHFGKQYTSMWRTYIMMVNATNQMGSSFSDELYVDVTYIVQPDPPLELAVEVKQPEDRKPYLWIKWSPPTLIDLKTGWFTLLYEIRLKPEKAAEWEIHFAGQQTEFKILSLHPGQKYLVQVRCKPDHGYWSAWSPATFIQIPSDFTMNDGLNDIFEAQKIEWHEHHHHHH


How the values were obtained:
[1] = molecular target: T1, extracellular segment of the PRLR …; assay: ELISA, coated antigen 1 ug/mL
[2] = molecular target: T1, extracellular segment of the PRLR …; assay: ELISA, coated antigen 1 ug/mL, antibody 10 ug/mL
[3] = molecular target: T4, recombinant mesothelin protein with the same tag; assay: ELISA, coated antigen 1 ug/mL, antibody 10 ug/mL
T4 construct: Control antigen of the species-specific ELISA; also called Control protein

[4] = molecular target: T2, human PRLR expressed on cells; assay: cell-based or functional assay
[5] = molecular target: T3, extracellular segment of human PRLR …; assay: BLI, biotinylated monomeric PRLR ECD on streptavidin sensor, antibody 3.125-100 nM in solution, 1:1 fit
[6] = molecular target: T1, extracellular segment of the PRLR …; assay: as above
[7] = molecular target: T3, extracellular segment of human PRLR …; assay: BLI epitope binning on biotinylated human PRLR ECD, 100 nM each; competitor: P-PR-C07H-v; which axis is the first antibody is not stated
[8] = molecular target: T3, extracellular segment of human PRLR …; assay: BLI epitope binning on biotinylated human PRLR ECD, 100 nM each; competitor: HP-PR01D12-v; which axis is the first antibody is not stated
[9] = molecular target: T3, extracellular segment of human PRLR …; assay: BLI epitope binning on biotinylated human PRLR ECD, 100 nM each; competitor: P-PR-C05H-v2; which axis is the first antibody is not stated

binding result [1]	absorbance at 450nm [2]	absorbance at 450nm [3]	Blocking percentage (%) of 100 nM antibody (STAT5 luciferase reporter) [4]	Kd [5]	koff [5]	kon [5]	Kd [6]	koff [6]	kon [6]	ratio of the binding signal of the second antibody to the reference [7]	ratio of the binding signal of the second antibody to the reference [8]	ratio of the binding signal of the second antibody to the reference [9]	Binder
no binding (tested: 10 µg/mL)	0.097	0.076	–	–	–	–	–	–	–	–	–	–	HP-PR02H02 (antibody, V domains shown, also called Antibody No. 21) VH: EVMLVESGGGLVKPGGSLKLACAASGFTFSSYTMSWVRQTPEKRLEWVATISSGGSYTYYPDSVKGRFTISRDNAKNTLYLQLSSLKSEDTAMYYCTRDRYYSTTPDWYFDVWGAGTTLTVSS VL: DIVITQSPATLSVTPGDSVSLSCRATQIIFNNLHWYQQKSHESPRLLITYTSQSISGIPSRFSGSGSGTDFTLTINSVETEDFGMYFCQQSNTWPRTFGGGTKLEIK
no binding (tested: 10 µg/mL)	0.077	0.076	–	–	–	–	–	–	–	–	–	–	HP-PR01B01 (antibody, V domains shown, also called Antibody No. 23) VH: EVHLVESGPDLVKPSQSLSLTCTVTGYSITSGYNWHWIRQFPGNKLEWMGYIHYSGSTKYDPSLKSRISFTRDTSRNQFFLQLNSVTTEDRATYYCARSEAGGYSWFAYWGQGTLVTVSA VL: DIVMTQSPAIMSASPGEKVTMACSASSSVNYMHWYQQKSGTSPKRWIYDTSKLASGVPARFSGSGSGTSYSLTISSMEAEDAATYYCQQWSSNPLTFGAGTKLELK

Further lines, the binder ahead of its results:

Binder	binding result [1]	absorbance at 450nm [2]	absorbance at 450nm [3]	Blocking percentage (%) of 100 nM antibody (STAT5 luciferase reporter) [4]	Kd [5]	koff [5]	kon [5]	Kd [6]	koff [6]	kon [6]	ratio of the binding signal of the second antibody to the reference [7]	ratio of the binding signal of the second antibody to the reference [8]	ratio of the binding signal of the second antibody to the reference [9]
P-PR-C05H-v2 (antibody, V domains shown, Humanized antibody from P-PR-C05H; also called Antibody No. 25; Anti-P-PR-C05H-v2) VH: EVQLVQSGAEVKKPGASVKVSCKASGFTFTTFWVHWVRQAPGQGLEWIGNIAPGSTSTNYAQKFQGRATLTVDTSISTAYMELSSLRSEDTAVYYCIRHSGNYFNAMDYWGQGTLVTVSS VL: DIVMTQSPLSLPVTPGEPASISCRSSKSLLHSNGNTYLYWFLQKPGQSPQLLIYRMSNRASGVPDRFSGSGSGTDFTLKISRVEAEDVGVYYCMQHLEYPLTFGQGTKVEIK	–	–	–	17.3%	< 1 pM	5.03e-07 s⁻¹	937000 M⁻¹ s⁻¹	< 1 pM	4.08e-07 s⁻¹	1.04e+06 M⁻¹ s⁻¹	35%	15.5%	11.2%
P-PR-C07H-v (antibody, V domains shown, Humanized antibody from P-PR-C07H; also called Antibody No. 26; hP-PR-C07H-v) VH: EVQLVQSGAEVKKPGSSVKVSCKASGYTFTNNWLAWIRQAPGQGLEWIGDIYPGGVYTNYNQKFQGRATLTADTSTSTAYMELSSLRSEDTAVYFCYYGDFWSAYWGQGTLVTVSS VL: DIVMTQSPLSLPVTPGEPASISCRSSKSLLHSNGNTYLYWFLQKPGQSPQLLIYRMSNRASGVPDRFSGSGSGTDFTLKISRVEAEDVGVYYCMQHLEYPLTFGQGTKVEIK	–	–	–	100%	3940 pM	0.0032 s⁻¹	813000 M⁻¹ s⁻¹	< 1 pM	4.19e-07 s⁻¹	663000 M⁻¹ s⁻¹	13.4%	49.8%	52.7%
HP-PR01D12-v (antibody, V domains shown, also called Antibody No. 27; hHP-PR01D12-v) VH: EVQLVESGGGLVQPGGSLRLSCAASGFTFSSFGMNWVRQAPGKGLEWVAYISSGSSIIYYADSVKGRFTISRDNSKNTLYLQMNSLRAEDTAVYYCTRFYGYIPFDYWGQGTLVTVSS VL: DIQMTQSPSSLSASVGDRVTITCRASSSLIYLHWYQQKPGKAPKLWIYDTSKLASGVPSRFSGSGSGNDYTLTISSLQPEDFATYYCFQGSGYPLTFGQGTKVEIK	–	–	–	46.7%	1.13 pM	4.88e-07 s⁻¹	431000 M⁻¹ s⁻¹	< 1 pM	3.43e-07 s⁻¹	453000 M⁻¹ s⁻¹	31.8%	14.4%	9.2%
